Experimental data reported in publication PMC3616741.

biological target: T1, U2AF65 1,2 (RRM1-RRM2, wild-type linker) (Homo sapiens, UniProt P26368 148-336); assay: SPR
T1 sequence (P26368 148-336, one chain of several): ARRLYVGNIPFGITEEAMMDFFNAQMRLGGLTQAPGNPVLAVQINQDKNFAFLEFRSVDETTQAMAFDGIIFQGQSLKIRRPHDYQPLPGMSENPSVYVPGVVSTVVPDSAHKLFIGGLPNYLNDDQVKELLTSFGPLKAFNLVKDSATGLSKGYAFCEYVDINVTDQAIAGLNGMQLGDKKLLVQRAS

| Binder | Kd [µM] |
| --- | --- |
| CCCUUUUUUUUCC (ssRNA) [rAdML13] | 12.5 ± 1.6 |

biological target: T1, U2AF65 1,2 (RRM1-RRM2, wild-type linker); assay: SPR; remark: another data set of the same source

| Binder | Kd [µM] |
| --- | --- |
| CCCUCUUUUUUCC (ssRNA) [rC(5)] | 13.9 ± 1 |
| CCCCCCCUUUUCC (ssRNA) [3'-4rU] | 69.4 ± 3.1 |
| UUUUUUUUUUUUU (ssRNA) [rU13] | 13.1 ± 0.9 |
| CCCUUUUUCUUCC (ssRNA) [rC(9)] | 13.7 ± 1.3 |
| CCUUUUUCCCCCC (ssRNA) [5'-5rU] | 14.4 ± 0.8 |
| CCUUUUCCCCCCC (ssRNA) [5'-4rU] | 14.3 ± 0.6 |
| CCCCCUUCUCUCC (ssRNA) [rC(4,5,8,10)] | 27.9 ± 1.3 |
| CCUCUCUUCCCCC (ssRNA) [rU(3)C(4,6,9,10,11)] | 14.4 ± 1.1 |
| CCCUUUCUCCUCC (ssRNA) [rC(7,9,10)] | 11.6 ± 0.8 |
| CCCCCCCCUUUCC (ssRNA) [3'-3rU] | 89.5 ± 3.9 |
| CCCUUUCUUCUCC (ssRNA) [rC(7,10)] | 14.5 ± 0.9 |
| CCUUUCCCCCCCC (ssRNA) [5'-3rU] | 22 ± 0.9 |
| CCCUUUCUCUUCC (ssRNA) [rC(7,9)] | 11 ± 0.6 |
| CCCUUUCUUUUCC (ssRNA) [rC(7)] | 9.3 ± 0.4 |
| CCCUUUUUUCUCC (ssRNA) [rC(10)] | 11.9 ± 0.8 |
| CCCCCCUUUUUCC (ssRNA) [3'-5rU] | 45.2 ± 3.4 |

biological target: U2AF65 1,2 MUT (Homo sapiens, UniProt P26368 148-336, D293N;K329Q;L331K;Q333E); assay: SPR
Sequence (P26368 148-336 D293N/K329Q/L331K/Q333E, one chain of several): as the sequence (P26368 148-336, one chain of several) above, with D146N, K182Q, L184K, Q186E counted along it

| Binder | Kd [µM] |
| --- | --- |
| CCCCCCCUUUUCC (ssRNA) [3'-4rU] | 12.5 ± 1.3 |
| CCUUUUCCCCCCC (ssRNA) [5'-4rU] | 14 ± 1.6 |
